Target: T1, fibrinogen (Homo sapiens, UniProt P02671+P02675+P02679)
T1 sequence (P02671 20-629 limits assumed): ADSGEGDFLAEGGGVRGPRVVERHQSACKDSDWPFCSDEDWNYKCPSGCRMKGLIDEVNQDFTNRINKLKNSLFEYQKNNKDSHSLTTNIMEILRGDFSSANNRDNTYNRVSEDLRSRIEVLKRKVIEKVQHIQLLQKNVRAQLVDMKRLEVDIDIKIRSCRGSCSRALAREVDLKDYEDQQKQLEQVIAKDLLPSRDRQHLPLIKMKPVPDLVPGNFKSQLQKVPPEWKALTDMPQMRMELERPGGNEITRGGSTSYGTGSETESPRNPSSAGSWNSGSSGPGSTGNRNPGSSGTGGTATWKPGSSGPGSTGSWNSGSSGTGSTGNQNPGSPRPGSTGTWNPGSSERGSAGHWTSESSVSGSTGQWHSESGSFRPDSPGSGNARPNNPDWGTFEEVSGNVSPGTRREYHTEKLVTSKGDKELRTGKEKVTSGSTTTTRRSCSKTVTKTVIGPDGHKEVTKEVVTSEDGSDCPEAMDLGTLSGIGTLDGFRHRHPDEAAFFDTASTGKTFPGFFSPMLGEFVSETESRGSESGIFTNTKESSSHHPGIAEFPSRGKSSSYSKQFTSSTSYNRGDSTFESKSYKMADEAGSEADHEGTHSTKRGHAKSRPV
T1 sequence (P02675 31-491): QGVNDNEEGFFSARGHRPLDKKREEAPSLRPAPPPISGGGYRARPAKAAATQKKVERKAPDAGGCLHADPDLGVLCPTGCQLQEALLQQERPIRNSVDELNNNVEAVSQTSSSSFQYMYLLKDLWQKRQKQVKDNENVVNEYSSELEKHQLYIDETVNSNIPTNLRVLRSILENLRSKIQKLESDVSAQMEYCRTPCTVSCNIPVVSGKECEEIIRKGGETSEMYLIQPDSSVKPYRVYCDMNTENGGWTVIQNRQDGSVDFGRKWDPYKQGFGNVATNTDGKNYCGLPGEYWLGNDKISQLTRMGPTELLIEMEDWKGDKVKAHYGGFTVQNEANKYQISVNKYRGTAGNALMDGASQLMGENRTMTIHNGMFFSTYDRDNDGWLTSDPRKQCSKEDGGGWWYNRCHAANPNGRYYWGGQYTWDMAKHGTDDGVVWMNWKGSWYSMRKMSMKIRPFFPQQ
T1 sequence (P02679 27-453): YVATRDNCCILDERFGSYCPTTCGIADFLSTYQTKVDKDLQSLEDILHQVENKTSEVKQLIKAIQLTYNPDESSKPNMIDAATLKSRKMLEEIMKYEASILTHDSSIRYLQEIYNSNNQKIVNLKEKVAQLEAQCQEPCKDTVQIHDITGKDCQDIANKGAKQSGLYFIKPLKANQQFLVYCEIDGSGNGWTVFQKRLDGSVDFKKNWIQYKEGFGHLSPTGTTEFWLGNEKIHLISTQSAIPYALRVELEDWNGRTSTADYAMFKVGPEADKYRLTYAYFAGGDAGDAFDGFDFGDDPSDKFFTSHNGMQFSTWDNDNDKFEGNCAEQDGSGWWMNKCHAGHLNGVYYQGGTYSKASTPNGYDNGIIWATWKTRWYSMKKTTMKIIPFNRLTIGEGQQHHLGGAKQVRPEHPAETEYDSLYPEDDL
Test: SPR on immobilized fibrinogen surface
Assay type: binding
Description: Based on previous SPR protocols developed in the lab^4, a thin fibrin layer was immobilized on the surface of a gold SPR chip via layer-by-layer deposition of fibrinogen-thrombin-fibrinogen^3. SdFvs were flowed across the fibrin surface and the binding interactions were evaluated and recorded. Additionally, antibody fragment binding interactions with a surface of immobilized fibrinogen was used to investigate the specificity to fibrin. All SPR data was examined and analyzed with Scrubber 2 and Clamp XP (Center for Biomolecular Interactions Analysis, University of Utah). Data simulation curves were generated based on a Langmuir 1:1 binding model assuming only a single ligand-analyte interaction.

B1: H6: fibrin-specific human sdFv clone from phage biopanning, SEQ ID NO: 1 (protein)
VHH: QVQLLESGGGLVQPGGSLRLSCAASGDRFTHNDMGWVRQAPGKGLEWVSTIPTTDGSTYYADSVKGRFTISRDNSKSTLYLQMNSLRAEDTAVYYCATGYMWKAPAYVKYWGQGTLVTVSSAAAEQKLISEEDLNSAAHYTDIG
binding to fibrinogen: negligible binding

— patent US11419948B2, “Functionalized microgels with fibrin binding elements” (Georgia Tech Research Corporation, priority 2013, dated 2022)
